Assay results: patent US20080299132A1, “Synergistic compositions for treating HIV-1” (Roche Palo Alto LLC, priority 2006, published 2008)

Experiments:
CCR5 [1] = molecular target: T1, CCR5 (Homo sapiens, UniProt P51681); conditions: cited from earlier work
CCR5 [2] = molecular target: T1, CCR5; experiment: Drug interaction (synergy) analysis of two-drug combinations in the CCF assay (Greco and Prichard models); format: cell-based; set-up: host or cells: CEM-NKr-CCR5-Luc
Excerpt: For the in vitro cell-cell fusion studies, the possibility of either enhanced (synergy) or reduced (antagonism) efficacy of CCR5 antibodies in combination with CCR5 antagonists was considered.
The concentration response surface approach described by Greco et al. (Cancer Res. 1990 50:5318-5327) was used to analyze the data. A seven-parameter non-linear model (i) was fit to all experimental data including percent inhibitions calculated from replicates for all concentrations of the two drugs alone and in combination from two 384-well plates. […]
Loewe additivity or no interaction is indicated when the 95% confidence interval of a includes 0. Furthermore, the predicted additivity of the drugs combined was calculated by using all estimated parameters of the Greco model, except a that is fixed at 0. […]
Theoretical additive interactions were calculated from the dose response curves of the individual drugs based on the Bliss Independence equation. […]
The total sum of differences between the observed percent inhibitions and the upper bound of 95% confidence interval of predicted additive percentages is calculated as a statistically significant synergy volume ΣSYN. The total sum of differences between the observed percent inhibitions and the lower bound of 95% confidence interval of predicted additive percentages is calculated as a statistically significant antagonism volume ΣANT. […]

CCR5 [3] = molecular target: T1, CCR5; experiment: CCR5 mAb binding to CHO-CCR5 cells after pre-incubation with CCR5 antagonists (FACS); conditions: pre-incubation with 50 nM MVC, AK602 or SCH-D, RT 1 h
Excerpt: FIG. 4—The graph illustrates the effect of CCR5 antagonists on the time course of 5 mAb binding. […] The time course curves for each mAb in the presence of various antagonists were created based on their mean fluorescence intensity (MFI) values.
(§1) The potential for synergism should be maximized when both the antibody and the low molecular weight antagonist (or fusion or attachment inhibitor) can bind independently to the CCR5 receptor.

CCR5 [4] = molecular target: T1, CCR5; experiment: 3H-MVC binding to CHO-CCR5 cells after pre-incubation with CCR5 mAbs; conditions: CHO-CCR5 cells preincubated with 30 μg/mL mAb, 26 nM 3H-MVC
Procedure: The cells (2×10^5/100 μL) were pre-incubated with 30 μg/mL of CCR5 mAbs or PBS at RT for 1 h, then incubated with 26 nM of ^3H-MVC. At the end of various time points, cells were washed and the membrane bound ^3H-MVC was measured as described in Example 2. The maximal counts from the control samples were set as 100% binding and the relative binding for all other samples were calculated and the time course curves were generated based on these relative binding at each time point.
as §1

T1 sequence (P51681 whole entry): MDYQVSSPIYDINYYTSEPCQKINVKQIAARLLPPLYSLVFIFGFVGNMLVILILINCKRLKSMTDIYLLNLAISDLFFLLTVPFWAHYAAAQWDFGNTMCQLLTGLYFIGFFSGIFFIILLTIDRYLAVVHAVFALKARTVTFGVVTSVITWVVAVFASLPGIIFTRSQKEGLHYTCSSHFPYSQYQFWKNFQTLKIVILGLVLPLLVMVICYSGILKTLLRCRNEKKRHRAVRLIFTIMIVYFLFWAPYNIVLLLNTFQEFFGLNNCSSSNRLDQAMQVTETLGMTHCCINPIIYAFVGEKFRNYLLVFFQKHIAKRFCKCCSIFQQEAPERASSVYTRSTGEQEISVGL

Row | Molecule | effect on the binding of mAb 45523, in words (CCR5 [1]) | drug interaction in words (synergy / antagonism) (CCR5 [2]; combination in cell-cell fusion assay) | mAb binding to CHO-CCR5 cells, effect of CCR5 antagonists, in words (CCR5 [3]) | effect on MVC binding, in words (CCR5 [4]) | higher synergy than ROAb14 when combined with MVC (CCR5 [2]; combination with MVC)
1 | CCCCN1C(=O)[C@@H]([C@H](O)C2CCCCC2)NC(=O)C12CCN(Cc1ccc(Oc3ccc(C(=O)O)cc3)cc1)CC2 [AK602, reference compound] | completely blocked | highest synergy |  |  | 
2 | RoAb13: mouse anti-human CCR5 monoclonal antibody (Roche), binds the N-terminal end of CCR5 (antibody, V domains shown) VH: EVKLVESGGGLVKPGGSLKLSCAASGFTFSTYAMSWVRQTPEKRLEWVASISTGDNTYYTDSVRGRFTISRDNARNILYLQMSSLRSEDTAMYFCTRGRGDRGDLFGYWGQGTLVTVSS VL: DIVMSQSPSSLAVSVGEKVTMSCKSSQSLLYRGNQMNYLAWYQQKPGQSPKLLIYWASTRESGVPDRFTGSGSGTEFTLTISSVKAEDLTVYYCQQYYTYPRTFGGGTKLEIKR |  |  | unaffected | no effect | approximately 60%
